Paper doi:10.1101/2020.09.10.287607 (bioRxiv, 2020)

T1: recombinant human RSPO3 (Peprotech 120-44) (human, UniProt Q9BXY4 22-272)
T1 sequence (looked up): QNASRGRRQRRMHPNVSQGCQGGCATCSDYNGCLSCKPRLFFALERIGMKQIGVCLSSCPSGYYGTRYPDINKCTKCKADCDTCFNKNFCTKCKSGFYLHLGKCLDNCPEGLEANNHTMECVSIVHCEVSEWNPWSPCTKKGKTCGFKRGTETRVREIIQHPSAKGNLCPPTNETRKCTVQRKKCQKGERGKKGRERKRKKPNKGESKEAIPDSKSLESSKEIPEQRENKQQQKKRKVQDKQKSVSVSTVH

B1: recombinant human ZNRF3 Fc Chimera protein (R&D systems 7994-RF) (Fc fusion, UniProt Q9ULT6 56-219, looked up)
chain: KETAFVEVVLFESSPSGDYTTYTTGLTGRFSRAGATLSAEGEIVQMHPLGLCNNNDEEDLYEYGWVGVVKLEQPELDPKPCLTVLGKAKRAVQRGATAVIFDVSENPEAIDQLNQGSEDPLKRPVVYVKGADAIKLMNIVNKQKVARARIQHRPPRQPTEYFDM
B2: BMPR1A^ECD-AP (domain or fragment, UniProt P36894 24-152, looked up)
chain: QNLDSMLHGTGMKSDSDQKKSENGVTLAPEDTLPFLKCYCSGHCPDDAINNTCITNGHCFAIIEEDDQGETTLASGCMKYEGSDFQCKDSPKAQLRRTIECCRTNLCNQYLQPTLPPVVIGPFFDGSIR

Tests used:
Assay in all cases: in vitro binding assay
[1] = biological target: T2, recombinant human RSPO2 (Peprotech 120-43) (human, UniProt Q6UXX9 22-243)
T2 sequence (Q6UXX9 22-243): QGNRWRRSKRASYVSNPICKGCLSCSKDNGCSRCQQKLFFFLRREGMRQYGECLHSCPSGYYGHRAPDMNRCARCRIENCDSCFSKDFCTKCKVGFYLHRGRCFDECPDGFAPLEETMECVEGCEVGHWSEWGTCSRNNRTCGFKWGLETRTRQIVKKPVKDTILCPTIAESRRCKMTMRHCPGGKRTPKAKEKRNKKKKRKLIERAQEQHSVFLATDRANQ

[2] = biological target: T1, recombinant human RSPO3 (Peprotech …)
[3] = biological target: T2, recombinant human RSPO2 (Peprotech …); remark: listed apart in the source

Row | Binder | binding result [1] | binding result [2] | Kd [3]
1 | B1 | binds | binds | –
2 | B2 | – | – | ~4.8 nM
